According to patent US20240247080A1, “GLP1/GIP/NPY2 RECEPTOR TRIPLE AGONISTS” (Boehringer Ingelheim International GmbH, priority 2022, published 2024):
Starred links: 1 amine or outer side, 2 acyl side, 3 side chain; linkers in the order of their positions; H or OH if unused. Non-standard residues stand in square brackets, D forms with d. Groups on a side chain read outwards from the residue. No end group written: not given here. *: point of attachment. C20 diacid = O=C(O)CCCCCCCCCCCCCCCCCCC(=O)*; C18 diacid = O=C(O)CCCCCCCCCCCCCCCCC(=O)*; γGlu = O=C(O)[C@H](CCC(=O)[*:2])N[*:1]; εLys = N[C@@H](CCCCN[*:1])C(=O)[*:2]; AEEA = NCCOCCOCC(=O)O; Aib = CC(C)(N)C(=O)O

Tests used:
Assay in all cases: cell-based or functional assay
[1] = target: T1, human neuropeptide Y2 (NPY2) receptor (human, UniProt P49146 1-381)
T1 sequence (looked up): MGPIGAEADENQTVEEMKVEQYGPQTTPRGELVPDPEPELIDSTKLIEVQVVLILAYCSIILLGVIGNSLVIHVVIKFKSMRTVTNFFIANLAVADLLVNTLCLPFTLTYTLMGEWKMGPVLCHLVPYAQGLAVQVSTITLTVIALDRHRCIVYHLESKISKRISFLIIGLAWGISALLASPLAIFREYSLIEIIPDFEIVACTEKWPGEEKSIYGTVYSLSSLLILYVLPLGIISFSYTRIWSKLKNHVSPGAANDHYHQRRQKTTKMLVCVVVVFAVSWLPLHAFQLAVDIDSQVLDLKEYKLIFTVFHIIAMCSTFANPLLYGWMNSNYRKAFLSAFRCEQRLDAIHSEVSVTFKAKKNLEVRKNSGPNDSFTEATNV

[2] = target: T2, human GIP receptor (human, UniProt P48546 22-466)
T2 sequence (looked up): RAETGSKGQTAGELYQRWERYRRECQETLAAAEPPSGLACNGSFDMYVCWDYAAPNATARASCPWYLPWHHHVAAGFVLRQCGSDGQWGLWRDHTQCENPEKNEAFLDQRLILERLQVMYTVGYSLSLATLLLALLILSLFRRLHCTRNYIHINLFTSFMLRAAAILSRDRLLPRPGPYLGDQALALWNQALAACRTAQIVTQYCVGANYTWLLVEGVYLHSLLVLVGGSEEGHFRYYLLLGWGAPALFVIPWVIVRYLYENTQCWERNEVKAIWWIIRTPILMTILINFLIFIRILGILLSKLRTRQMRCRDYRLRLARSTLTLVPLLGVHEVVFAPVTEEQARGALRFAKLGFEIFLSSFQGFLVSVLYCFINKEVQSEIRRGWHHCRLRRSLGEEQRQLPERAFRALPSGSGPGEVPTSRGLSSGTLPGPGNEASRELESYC

[3] = target: human GLP-1 receptor (human, UniProt P43220 24-463)

| Binder | EC50, CreLuc assay, 0.5% hP [1] | EC50, CreLuc assay, 100% hP [1] | EC50, CreLuc assay, 0.5% hP [2] | EC50, CreLuc assay, 100% hP [2] | EC50, CreLuc assay, 0.5% hP [3] | EC50, CreLuc assay, 100% hP [3] |
| --- | --- | --- | --- | --- | --- | --- |
| Y[Aib]EGTFTSDYSI[Aib]LEKQAQ[Aib]AFVQWLIK([εLys-γGlu-γGlu-γGlu-γGlu-γGlu-C18 diacid])GGPESGASLRHYYNWLTRQRY-NH2 (also: TFA salt) [Compound 60] | 7.43 nM | 23.1 nM | 0.33 nM | 0.35 nM | 0.08 nM | 1.69 nM |
| YXEGTFTSDYSIXLEKQAQXAFVEWLIKGGPSSGIELRHFLNHLTRQRY (Aib at 2, 13, 20; K28 side chain: C20DA-gGlu-gGlu-gGlu-gGlu-gGlu-gGlu-eLys; C-terminal NH2) [Compound 2] | > 100 nM | 564 nM | 0.35 nM | 1.56 nM | 0.1 nM | 1.39 nM |
| Y[Aib]EGTFTSDYSI[Aib]LEKQAQ[Aib]AFVQWLIK([εLys-γGlu-γGlu-γGlu-γGlu-γGlu-C20 diacid])GGPESGASLRHYYNWLTRQRY-NH2 (also: TFA salt) [Compound 61] | 6.25 nM | 37.6 nM | 0.36 nM | 0.56 nM | 0.11 nM | 3.95 nM |
| Y[Aib]EGTFTSDYSI[Aib]LEKQAQ[Aib]AFVQWLIK([AEEA-AEEA-γGlu-γGlu-γGlu-γGlu-C18 diacid])GGPESGASLRHYYNWLTRQRY-NH2 (also: TFA salt) [Compound 58] | 10.2 nM | 22.8 nM | 0.24 nM | 0.31 nM | 0.05 nM | 2 nM |
| Y[Aib]EGTFTSDYSI[Aib]LEKQAQ[Aib]AFVQWLIKGGPSYYASLRHYYNWLTRQRY-NH2 (not fully specified (residue 28); also: TFA salt) [Compound 59] | 10.8 nM | 29.9 nM | 0.49 nM | 5.75 nM | 0.39 nM | 8.81 nM |
| Y[Aib]EGTFTSDYSI[Aib]LEKQAQ[Aib]AFVQWLIK([εLys-Glu-Glu-Glu-Glu-Glu-C18 diacid])GGPESGASLRHYYNWLTRQRY-NH2 (also: TFA salt) [Compound 63] | 15.2 nM | 74.3 nM | 0.13 nM | 0.89 nM | 0.08 nM | 3 nM |
| Y[Aib]EGTFTSDYSI[Aib]LEKQAQ[Aib]AFVQWLIK([εLys-γGlu-γGlu-γGlu-γGlu-γGlu-C20 diacid])GGPEEPASLRHYYNWLTRQRY-NH2 (also: TFA salt) [Compound 67] | 13.7 nM | 78.9 nM | 0.29 nM | 6.18 nM | 0.38 nM | 27.4 nM |
| Y[Aib]EGTFTSDYSI[Aib]LEKQAQ[Aib]AFVEWLIKGGPESPASLRHYYNWLTRQRY-NH2 (not fully specified (residue 28); also: TFA salt) [Compound 64] | 17 nM | 95.3 nM | 0.18 nM | 2.37 nM | 0.29 nM | 11.2 nM |
| Y[Aib]EGTFTSDYSI[Aib]LEKQAQ[Aib]AFVEWLIK([γGlu-γGlu-γGlu-γGlu-γGlu-γGlu-C20 diacid])GGGSEYVSLRHYYNWLTRQRY-NH2 (also: TFA salt) [Compound 65] | 10.9 nM | 24.2 nM | 1.03 nM | 15.7 nM | 2.65 nM | 49.3 nM |
| YXEGTFTSDYSIXLEKQAQXAFVEWLIKGGPRYYASLRHYYNWLTRQRY (Aib at 2, 13, 20; K28 side chain: C20DA-gGlu-gGlu-gGlu-gGlu-gGlu-gGlu-eLys; C-terminal NH2) [Compound 62] | 13.6 nM | 40.5 nM | 0.48 nM | 5.35 nM | 0.78 nM | 9.23 nM |
| YXEGTFTSDYSIXLEEQAQXAFVQWLIKGGPSSGQSLRHYYNWLTRQRY (Aib at 2, 13, 20; K28 side chain: C20DA-gGlu-Glu-gGlu-gGlu-gGlu-gGlu-eLys; C-terminal NH2) [Compound 8] | 11.6 nM | 43 nM | 0.12 nM | 1.72 nM | 0.04 nM | 1.05 nM |
| YXEGTFTSDYSIXLEKQAQXAFVEWLIKGGPSSGASXRHYYNWLTRQRY (Aib at 2, 13, 20, 37; DTyr 49; K28 side chain: C20DA-gGlu-gGlu-gGlu-gGlu-gGlu-gGlu-eLys; C-terminal NH2) [Compound 74] | 53.4 nM | 110 nM | 0.1 nM | 0.62 nM | 0.08 nM | 1.13 nM |
| YXEGTFTSDYSIXLEKQAQXAFVEWLIKGGPSSGASLRHYYNRXTRQRY (Aib at 2, 13, 20, 44; K28 side chain: C20DA-gGlu-gGlu-gGlu-gGlu-gGlu-gGlu-eLys; C-terminal NH2) [Compound 68] | 53.9 nM | 139 nM | 0.32 nM | 2.05 nM | 0.12 nM | 2.19 nM |
| YXEGTFTSDYSIXLEKEKQXAFVEWLIKGGPSSGASLRHYYNWLTRQRY (Aib at 2, 13, 20; K28 side chain: C20DA-gGlu-gGlu-gGlu-gGlu-gGlu-gGlu-eLys; C-terminal NH2) [Compound 69] | 8.41 nM | 26.6 nM | 0.8 nM | 2.95 nM | 1.48 nM | 27.8 nM |
| YXEGTFTSDYSIXLEEEAQXAFVEWLIKGGPSSGASLRHYYNWLTRQRY (Aib at 2, 13, 20; K28 side chain: C20DA-gGlu-gGlu-gGlu-gGlu-gGlu-gGlu-eLys; C-terminal NH2) [Compound 66] | 18.8 nM | 85.6 nM | 0.64 nM | 3.06 nM | 0.24 nM | 11.6 nM |
| YXEGTFTSDYSIXLEKQAQXAFVEWLIKGGPSSGADLRHYLNWLTRQRY (Aib at 2, 13, 20; K28 side chain: C20DA-gGlu-gGlu-gGlu-gGlu-gGlu-gGlu-eLys; C-terminal NH2) [Compound 72] | 29.1 nM | 149 nM | 0.29 nM | 2.12 nM | 0.15 nM | 2.87 nM |
| YXEGTFTSDYSIXLEKQAQXAFVEWLIKGGPSSGASXRHYXNWLTRQRY (Aib at 2, 13, 20, 37, 41; K28 side chain: C20DA-gGlu-gGlu-Glu-gGlu-gGlu-gGlu-eLys; C-terminal NH2) [Compound 76] | 31.5 nM | 158 nM | 0.2 nM | 1.39 nM | 0.1 nM | 1.91 nM |
| YXEGTFTSDYSIXLEKQAQXAFVEWLIKGGPSSGASLRHYYNWLTXQRY (Aib at 2, 13, 20; hArg 46; DTyr 49; K28 side chain: C20DA-gGlu-gGlu-gGlu-gGlu-gGlu-gGlu-eLys; C-terminal NH2) [Compound 71] | > 100 nM | > 1000 nM | 0.13 nM | 0.64 nM | 0.14 nM | 1.13 nM |
| YXEGTFTSDYSIXLEKQAQXAFVEWLIKGGPSSPESLRHYYNWLTRQRY (Aib at 2, 13, 20; K28 side chain: C20DA-gGlu-gGlu-gGlu-gGlu-gGlu-gGlu-eLys; C-terminal NH2) [Compound 73] | 32.2 nM | 107 nM | 0.11 nM | 1.61 nM | 0.19 nM | 4.76 nM |
| Y[Aib]EGTFTSDYSI[Aib]LEKQAQ[Aib]AFVEWLIK([εLys-Glu-γGlu-γGlu-γGlu-γGlu-C20 diacid])GGPSYYVSLRHYYNWLTRQRY-NH2 (also: TFA salt) [Compound 75] | 7.12 nM | 33.5 nM | 0.54 nM | 12.4 nM | 0.35 nM | 23.9 nM |
| Y[Aib]EGTFTSDYSI[Aib]LEKQAQ[Aib]AFVEWLIK([εLys-γGlu-γGlu-γGlu-γGlu-γGlu-C20 diacid])GGPESPASLRHYYNWLTRQRY-NH2 (also: TFA salt) [Compound 70] | 16.2 nM | 67.2 nM | 0.28 nM | 2.62 nM | 0.3 nM | 22.2 nM |
